Results taken from patent publication US20100048462A1, “TRUNCATED PTH PEPTIDES WITH A CYCLIC CONFORMATION” (Zealand Pharma A/S, priority 2006, published 2010).
Bridge positions count the residues as written; N and C are the ends. Square brackets hold non-standard residues; d marks the D form. Peptide text beside a SMILES is read from it. hArg = N=C(N)NCCCC[C@H](N)C(=O)O; Ac5c = NC1(C(=O)O)CCCC1; Abu = CC[C@H](N)C(=O)O; Aib = CC(C)(N)C(=O)O

How the values were obtained:
Saos-2 PTH1R [1] = biological target: T1, Saos-2 PTH1R (Homo sapiens, UniProt Q03431); test: cAMP-efficacy assay in Saos-2 cells; assay type: cell-based
T1 construct: endogenous in cells; host or cells: Saos-2
T1 sequence (Q03431 27-593): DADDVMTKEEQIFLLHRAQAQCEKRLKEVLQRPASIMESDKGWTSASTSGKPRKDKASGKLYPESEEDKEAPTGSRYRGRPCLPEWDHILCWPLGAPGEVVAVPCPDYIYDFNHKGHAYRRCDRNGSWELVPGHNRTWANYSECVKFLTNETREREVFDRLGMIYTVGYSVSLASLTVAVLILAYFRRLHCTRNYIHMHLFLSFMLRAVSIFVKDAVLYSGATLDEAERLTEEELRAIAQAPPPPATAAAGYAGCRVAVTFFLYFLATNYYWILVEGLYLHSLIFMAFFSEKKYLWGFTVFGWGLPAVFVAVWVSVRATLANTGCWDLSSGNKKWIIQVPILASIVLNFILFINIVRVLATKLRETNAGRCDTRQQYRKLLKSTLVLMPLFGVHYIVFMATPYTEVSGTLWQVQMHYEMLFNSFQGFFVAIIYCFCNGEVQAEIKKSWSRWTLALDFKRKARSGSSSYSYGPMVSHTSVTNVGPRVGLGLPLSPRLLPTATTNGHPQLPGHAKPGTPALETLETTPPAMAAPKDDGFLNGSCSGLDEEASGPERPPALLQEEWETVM
Procedure, shortened: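 Saos-2 cells, grown two days after seeding at 50,000 cells/well, were exposed to peptide for 15 min at 37 °C in Tyrode's buffer with 0.1% BSA and 100 μM IBMX. After stopping with cold HCl, cAMP was measured by radioimmunoassay FlashPlate. EC50, pEC50, Hill slope and Emax came from a four-parameter sigmoidal fit.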

CYP2D6 = CYP2D6 (Homo sapiens, UniProt P10635); test: CYP2D6 inhibition in pooled human liver microsomes; assay type: in vitro ADME; design: Pooled human liver microsomes (HLM, final concentration 0.05 mg protein/mL); tissue BD Biosciences 452161; host or cells: pooled human liver microsomes; conditions: 10 μM compound, dextrorphan formation rate
CYP2D6, sequence (P10635 whole entry): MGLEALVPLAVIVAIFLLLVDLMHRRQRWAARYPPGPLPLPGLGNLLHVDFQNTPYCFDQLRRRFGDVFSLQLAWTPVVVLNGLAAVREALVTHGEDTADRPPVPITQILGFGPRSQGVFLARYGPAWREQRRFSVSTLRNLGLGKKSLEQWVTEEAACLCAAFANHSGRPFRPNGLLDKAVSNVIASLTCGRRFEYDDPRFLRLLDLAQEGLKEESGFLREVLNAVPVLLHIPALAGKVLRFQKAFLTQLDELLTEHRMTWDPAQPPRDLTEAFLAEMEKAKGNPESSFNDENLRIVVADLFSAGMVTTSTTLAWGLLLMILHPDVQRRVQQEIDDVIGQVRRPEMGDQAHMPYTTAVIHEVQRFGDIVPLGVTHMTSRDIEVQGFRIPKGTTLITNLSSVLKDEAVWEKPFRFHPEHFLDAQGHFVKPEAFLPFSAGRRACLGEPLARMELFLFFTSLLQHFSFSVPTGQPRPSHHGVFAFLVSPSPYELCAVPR
Experimental: Stock solutions of the test compounds (1 mM) were prepared in 50% isopropanol or 20% DMSO. Pooled human liver microsomes (HLM, final concentration 0.05 mg protein/mL) were mixed with phosphate buffer (0.1 M potassium phosphate, pH 7.4), CYP2D6 substrate (dextrometrorphan, 5 μM final concentration) and test compound (10 μM), quinidine (0.5 μM) or vehicle (0.2% DMSO or 0.5% isopropanol). The mixture was preincubated for 5 min at 37° C. prior to initiation of the reaction addition of a NADPH regenerating mixture (Final concentration: 1.25 mM NADP^+, 3.3 mM Glucose-6-phosphate, 3.3 mM MgCL2 and 0.4 U/mL glucose-6-phosphat dehydrogenase). After 5 minutes the reaction was stopped by addition of 0.25 volume stop reagent (94% acetonitrile, 6% acetic acid). Each experiment was performed in duplicate or triplicate.
The quantification of CYP2D6 product (dextrorphan) was performed by LC/MS/MS. After centrifugation for 5 min at 10.000 g, 40 μL of the supernatant was injected onto a C8 RP-HPLC column (XterraMS, C8, […], 50×2.1 mm). Dextrorphan was eluted by a linear gradient from 0 to 90% acetonitrile in 0.1% formic acid over 4 min using a flow rate of 0.15 ml/min. The concentration of dextrorphan in the reaction mixture was estimated from the peak area of the MS/MS transition (m/z 258.1>199) using an external calibration curve (Table 8).
The CYP2D6 activity in HLM was calculated as the metabolite formation rate: […]
Where, v is the formation rate, [metabolite] is the detected concentration of dextrorphan (pmol/mL) at the time (t, min) and [protein] is the protein concentration (mg/mL) in the reaction mixture. The influence of the test compounds on the CYP2D6 activity was calculated as % of the activity measured when incubated with the vehicle. The effect of CYP2D6 inhibitor (quinidine) was included as inhibition control within each batch analysis. A reduction in CYP2D6 activity to less than 70% of the vehicle control was considered significant.

Saos-2 PTH1R [2] = biological target: Saos-2 PTH1R (UniProt Q03431); test: cell-based or functional assay
[3] = cAMP, 100 μM IBMX, 37° C. 15 min, suffix of label = salt tested

Molecule: CC[C@H](C)[C@H](NC(=O)[C@H](CCC(=O)O)NC(=O)C(C)(C)NC(=O)[C@@H](NC(=O)C1(N)CCCC1)C(C)C)C(=O)N[C@@H](CCC(N)=O)C(=O)N[C@@H](CC(C)C)C(=O)N[C@@H](CCSC)C(=O)N[C@@H](Cc1c[nH]cn1)C(=O)N[C@@H](CC(N)=O)C(=O)N[C@@H](CC(C)C)C(=O)NCC(=O)N[C@@H](CCCCN)C(=O)N[C@@H](Cc1c[nH]cn1)C(=O)N[C@@H](CC(C)C)C(=O)N[C@@H](CC(N)=O)C(=O)N[C@@H](CC(=O)O)C(N)=O [SEQ ID NO: 1] (H-[Ac5c]V[Aib]EIQLMHNLGKHLND-NH2)
- pEC50 ± SEM (Saos-2 PTH1R [1]; [3]): inactive
- CYP2D6 activity (% of vehicle) (CYP2D6): 57 % of vehicle

Molecule: CC[C@H](C)[C@H](NC(=O)[C@H](CCC(=O)O)NC(=O)C(C)(C)NC(=O)[C@@H](NC(=O)C1(N)CCCC1)C(C)C)C(=O)N[C@@H](CCC(N)=O)C(=O)N[C@@H](CC(C)C)C(=O)N[C@@H](CCSC)C(=O)N[C@@H](Cc1c[nH]cn1)C(=O)N[C@@H](CCC(N)=O)C(=O)N[C@@H](CCCCNC(=N)N)C(=O)N[C@@H](C)C(=O)N[C@H]1CCCCNC(=O)C[C@@H](C(=O)O)NC(=O)[C@H](CC(N)=O)NC(=O)[C@H](CC(C)C)NC(=O)[C@H](Cc2c[nH]c3ccccc23)NC1=O [SEQ ID NO: 4, H-Ac5c-Val-Aib-Glu-Ile-Gln-Leu-Met-His-Gln-Har-Ala-Lys( )-Trp-Leu-Asn-Asp( )-OH] (H-[Ac5c]V[Aib]EIQLMHQ[hArg]AKWLND-OH; lactam 13-17)
- potency compared to linear / non-stabilized counterparts, in words (Saos-2 PTH1R [1]; cAMP): clearly higher potency
- EC50 (Saos-2 PTH1R [1]; [3]): 38 nM
- potency compared to linear / non-stabilized counterparts, in words (Saos-2 PTH1R [1]; cAMP, listed as 4): increased potencies
- potency compared to linear / non-stabilized counterparts, in words (Saos-2 PTH1R [1]; cAMP, listed as SEQ ID NO:4): higher potency
- Emax ± SEM (Saos-2 PTH1R [1]; relative effect to the control (SEQ ID NO: 32)): 1.11 ± 0.03
- CYP2D6 activity (% of vehicle) (CYP2D6): 89 % of vehicle

B1: H-Ac5c-Val-Aib-Glu-Ile-Gln-Leu-Met-His-Gln-Arg-Ala-Lys( )-Trp-Leu-Asn-Asp( )-NH2 (peptide)
chain: H-[Ac5c]V[Aib]EIQLMHQRAKWLND-NH2
modifications: lactam 13-17
SMILES: CC[C@H](C)[C@H](NC(=O)[C@H](CCC(=O)O)NC(=O)C(C)(C)NC(=O)[C@@H](NC(=O)C1(N)CCCC1)C(C)C)C(=O)N[C@@H](CCC(N)=O)C(=O)N[C@@H](CC(C)C)C(=O)N[C@@H](CCSC)C(=O)N[C@@H](Cc1c[nH]cn1)C(=O)N[C@@H](CCC(N)=O)C(=O)N[C@@H](CCCNC(=N)N)C(=O)N[C@@H](C)C(=O)N[C@H]1CCCCNC(=O)C[C@@H](C(N)=O)NC(=O)[C@H](CC(N)=O)NC(=O)[C@H](CC(C)C)NC(=O)[C@H](Cc2c[nH]c3ccccc23)NC1=O
- Emax, cAMP efficacy assay in Saos-2 cells (25T, trifluoroacetate salt) (relative to control (SEQ ID NO: 32)) (Saos-2 PTH1R [2]): 1.04
- pEC50, cAMP efficacy assay in Saos-2 cells (25T, trifluoroacetate salt) (Saos-2 PTH1R [2]): 8.05 -log(M)

B2: H-Aib-Val-Ac5c-Glu-Ile-Gln-Leu-Leu-His-Gln-Har-Ala-Lys( )-Trp-Leu-Asn-Asp( )-NH2 (peptide)
chain: H-[Aib]V[Ac5c]EIQLLHQ[hArg]AKWLND-NH2
modifications: lactam 13-17
SMILES: CC[C@H](C)[C@H](NC(=O)[C@H](CCC(=O)O)NC(=O)C1(NC(=O)[C@@H](NC(=O)C(C)(C)N)C(C)C)CCCC1)C(=O)N[C@@H](CCC(N)=O)C(=O)N[C@@H](CC(C)C)C(=O)N[C@@H](CC(C)C)C(=O)N[C@@H](Cc1c[nH]cn1)C(=O)N[C@@H](CCC(N)=O)C(=O)N[C@@H](CCCCNC(=N)N)C(=O)N[C@@H](C)C(=O)N[C@H]1CCCCNC(=O)C[C@@H](C(N)=O)NC(=O)[C@H](CC(N)=O)NC(=O)[C@H](CC(C)C)NC(=O)[C@H](Cc2c[nH]c3ccccc23)NC1=O
- Emax, cAMP efficacy assay in Saos-2 cells (13T, trifluoroacetate salt) (relative to control (SEQ ID NO: 32)) (Saos-2 PTH1R [2]): 0.96
- pEC50, cAMP efficacy assay in Saos-2 cells (13T, trifluoroacetate salt) (Saos-2 PTH1R [2]): 7.27 -log(M)

B3: H-Ac5c-Val-Aib-Glu-Ile-Gln-Leu-Met-His-Gln-Har-Ala-Lys( )-Trp-Leu-Asp-Asp( )-NH2 (peptide)
chain: H-[Ac5c]V[Aib]EIQLMHQ[hArg]AKWLDD-NH2
modifications: lactam 13-17
SMILES: CC[C@H](C)[C@H](NC(=O)[C@H](CCC(=O)O)NC(=O)C(C)(C)NC(=O)[C@@H](NC(=O)C1(N)CCCC1)C(C)C)C(=O)N[C@@H](CCC(N)=O)C(=O)N[C@@H](CC(C)C)C(=O)N[C@@H](CCSC)C(=O)N[C@@H](Cc1c[nH]cn1)C(=O)N[C@@H](CCC(N)=O)C(=O)N[C@@H](CCCCNC(=N)N)C(=O)N[C@@H](C)C(=O)N[C@H]1CCCCNC(=O)C[C@@H](C(N)=O)NC(=O)[C@H](CC(=O)O)NC(=O)[C@H](CC(C)C)NC(=O)[C@H](Cc2c[nH]c3ccccc23)NC1=O
- Emax, cAMP efficacy assay in Saos-2 cells (23T, trifluoroacetate salt) (relative to control (SEQ ID NO: 32)) (Saos-2 PTH1R [2]): 1.16
- pEC50, cAMP efficacy assay in Saos-2 cells (23T, trifluoroacetate salt) (Saos-2 PTH1R [2]): 7.48 -log(M)

B4: H-Ac5c-Val-Abu-Glu-Ile-Gln-Leu-Leu-His-Gln-Har-Ala-Lys( )-Trp-Leu-Asn-Asp( )-NH2 (peptide)
chain: H-[Ac5c]V[Abu]EIQLLHQ[hArg]AKWLND-NH2
modifications: lactam 13-17
SMILES: CC[C@H](NC(=O)[C@@H](NC(=O)C1(N)CCCC1)C(C)C)C(=O)N[C@@H](CCC(=O)O)C(=O)N[C@H](C(=O)N[C@@H](CCC(N)=O)C(=O)N[C@@H](CC(C)C)C(=O)N[C@@H](CC(C)C)C(=O)N[C@@H](Cc1c[nH]cn1)C(=O)N[C@@H](CCC(N)=O)C(=O)N[C@@H](CCCCNC(=N)N)C(=O)N[C@@H](C)C(=O)N[C@H]1CCCCNC(=O)C[C@@H](C(N)=O)NC(=O)[C@H](CC(N)=O)NC(=O)[C@H](CC(C)C)NC(=O)[C@H](Cc2c[nH]c3ccccc23)NC1=O)[C@@H](C)CC
- Emax, cAMP efficacy assay in Saos-2 cells (15T, trifluoroacetate salt) (relative to control (SEQ ID NO: 32)) (Saos-2 PTH1R [2]): 1.04
- pEC50, cAMP efficacy assay in Saos-2 cells (15T, trifluoroacetate salt) (Saos-2 PTH1R [2]): 7.22 -log(M)

B5: H-Ac5c-Val-Aib-Glu-Ile-Gln-Phe-Leu-His-Gln-Har-Ala-Lys( )-Trp-Leu-Asn-Asp( )-NH2 (peptide)
chain: H-[Ac5c]V[Aib]EIQFLHQ[hArg]AKWLND-NH2
modifications: lactam 13-17
SMILES: CC[C@H](C)[C@H](NC(=O)[C@H](CCC(=O)O)NC(=O)C(C)(C)NC(=O)[C@@H](NC(=O)C1(N)CCCC1)C(C)C)C(=O)N[C@@H](CCC(N)=O)C(=O)N[C@@H](Cc1ccccc1)C(=O)N[C@@H](CC(C)C)C(=O)N[C@@H](Cc1c[nH]cn1)C(=O)N[C@@H](CCC(N)=O)C(=O)N[C@@H](CCCCNC(=N)N)C(=O)N[C@@H](C)C(=O)N[C@H]1CCCCNC(=O)C[C@@H](C(N)=O)NC(=O)[C@H](CC(N)=O)NC(=O)[C@H](CC(C)C)NC(=O)[C@H](Cc2c[nH]c3ccccc23)NC1=O
- Emax, cAMP efficacy assay in Saos-2 cells (27T, trifluoroacetate salt) (relative to control (SEQ ID NO: 32)) (Saos-2 PTH1R [2]): 0.92
- pEC50, cAMP efficacy assay in Saos-2 cells (27T, trifluoroacetate salt) (Saos-2 PTH1R [2]): 7.91 -log(M)

B6: H-Ac5c-Val-Aib-Glu-Ile-Glu-Leu-Leu-His-Gln-Har-Ala-Lys( )-Trp-Leu-Asn-Asp( )-NH2 (peptide)
chain: H-[Ac5c]V[Aib]EIELLHQ[hArg]AKWLND-NH2
modifications: lactam 13-17
SMILES: CC[C@H](C)[C@H](NC(=O)[C@H](CCC(=O)O)NC(=O)C(C)(C)NC(=O)[C@@H](NC(=O)C1(N)CCCC1)C(C)C)C(=O)N[C@@H](CCC(=O)O)C(=O)N[C@@H](CC(C)C)C(=O)N[C@@H](CC(C)C)C(=O)N[C@@H](Cc1c[nH]cn1)C(=O)N[C@@H](CCC(N)=O)C(=O)N[C@@H](CCCCNC(=N)N)C(=O)N[C@@H](C)C(=O)N[C@H]1CCCCNC(=O)C[C@@H](C(N)=O)NC(=O)[C@H](CC(N)=O)NC(=O)[C@H](CC(C)C)NC(=O)[C@H](Cc2c[nH]c3ccccc23)NC1=O
- Emax, cAMP efficacy assay in Saos-2 cells (29T, trifluoroacetate salt) (relative to control (SEQ ID NO: 32)) (Saos-2 PTH1R [2]): 1.27
- pEC50, cAMP efficacy assay in Saos-2 cells (29T, trifluoroacetate salt) (Saos-2 PTH1R [2]): 6.95 -log(M)
